# Experimental data as given in the DeepSol protein solubility set.
# Experiment: soluble on expression in E. coli; label from the status in PepcDB or PDB records
row,Sequence,soluble on expression in E. coli
1,MRKLLVSLVLLIFSENVTANRVEQVHLSLSGKMDEMVVTWLTQGPLPNVTPYVMYGLSKDALRWTAKATTTSWKDQGSHGYVRYTHRATMTKMVPGDTYYYKVGSSQDMSDVYHFHQPDPTQPLRAAIFGDLSVYKGAPSIKQLTDATHDNHFDVIIHIGDIAYDLHDDEGNRGDDYMNAVQPFAAYVPYMVFAGNHESDSHFNQIINRFTMPKNGVYDNNLFWSFDYGLTHFIGLNSEYYAEIHTKEAQAQYKWLQADLAKNKAQWTIVMFHRPWYCSTKDKGGCNDYLDMLSRKGNSELPGLEKLLFDHKVDMVLYGHKHTYERMWPIYDGTGYKSSDSGHIRNAKAPVYILTGSAGCHTHEGPSDAPQSFSATRLGQYGYTRLKVYNTTHLSTYFVDTSDKVGNFMDKFYLEKD,soluble
2,MRKMKTERAKEILVQLLKIPSPSGREDRVALYIMEFLHKLNYDVHIESDGEIIDLVVNPGAELFFEVHMDTIDPRAEPFVRGNIVYGTGASDIKGGIASILLMLEQLRKEGKDLNVGIVFVSDEEKGGRGSALFMERYRPKMAVVLEPTDLEVHIAHAGNIEAYFEVDGKEAHGACPESGINAIEQTFEMLQKLKDLEPFKAKGKYFDPHIGIQELICENPYYLIPALCKGRLEARLLPDQEVEDILDLIDPILDEYTVKYEYTEIWDGYELSEDEEIVQIAKSAMDMVGLDEFGAMRSWTDAINFTYNGTKTIVFGPGNLDISHTKQERIDVRDVVKASEFLLAVNEIFGNKS,soluble
3,MRKSRDANPFKAMPNILYPDELMDKAYNRSEKIAGELRTTTRGLSTPKSKIIEDNKIRTTASVISDNLLKIVEKTPSIDNLDPFYREILEIMVGSDEFKKSLAAVQWASEIVKKLGTQYSRKVKKAPSPQATSIVRKEFIGRVSSVLKQIYPNMAFLGVARNKLKNIPTVKNLPSVVIAGYPNVGKSTLLRTLTDAEPEVNSYPFTTKGLNIGYTEEGIQIIDTPGVLDRPIYERNDIELHAVVAINYLSDMILFVIDPTEFCGFTMEEQFNLLQEIRKTFNVPILVALTKMDVDEIEGLDKLEEDLGEYEVLKVSSFKKEGIADLRERLLDILDEQGLMGLLEELEHHHHHH,soluble
4,MRKTRNQAGARQALKQLGMRNTSRSAAPRRGCVLSCFFEHLSLYDHSFFPHHSSQMFLFLKDSRFRKKMASQQDASPPTGYNMGHRHSLTIETNPLHLLPSNMRRFSQADTARHPAAPLLSKLAARQQIPEAVAEKKDDEKPENK,not soluble
5,MRLDKYLSKSLHISRKEAKELIREGRVKVSGKVVKQAEYRVKEGEEVEVEGKSVKPKKNVYLMLYKPKGYLSTTEEDKKYPSFLELIREHFPSRKLFSAGRLDVDAEGLLLITDDGELAHRLTHPKWKVEKEYIVRLDRDIGDEELKKLYEVKLEEKPVQLVKAEKLSGDTVKAILTEGRHHVVKRLFKAVGHNVVYLKRTRVGNLRLDENMEPGEWRELTEEEVKELKRLVKYNPQN,soluble
6,MRLDRYLSNSGVGTRKEVKKLIKQGRVTVNGRVVLDPGHPVLENDAVALDGEVVRFHKKVYILFYKPSGYVTSTKDPHSETIMEFLPPLKGIFPVGRLDKDAEGLLIITNDGDFAHRVISPKWSVEKEYIVKVEGEVTEDKIEKLKNGVTLRDGFFAKAKRVEKLSNDTLKIVITEGKYHQIKRMTAAVGLKTVHLKRTRIGGLVLPDDMKPGEYRFLSEEEVKKVFEREDQKEDTPRS,not soluble
7,MRLERVLEEARAKGYPIEDNGLGNLWVVLPRERFKEEMAHYKAMGFNFLADIVGLDYLTYPDPRPERFAVVYELVSLPGWKDGDGSRFFVRVYVPEEDPRLPTVTDLWGSANFLEREVYDLFGIVFEGHPDLRKILTPEDLEGHPLRKDYPLGETPTLFREGRYIIPAEFRAALTGKDPGLTFYKGGSRKGYRSLWADLKKAREVKG,soluble
8,MRLIVVSGQSGAGKSVALRVLEDLGYYCVDNLPVSLLTAFIQSVQGSQQNVAVSIDIRNLPKEPSLVQDVLDQLKQNNDVSMLFLDASKETLLKRYSETRRIHPLSLSQSKPSLAQAIELEKQLLGPLKEQADLLLDSSNQSLHELSETVRMRIEGRERKDLVMVFQSFGFKYGLPTDADYVFDVRFLPNPHWEPDLRPLTGLDAPIKSFLEGHSEVMELKQQIQKFFEYWLPMLEKNNRSYLTIAIGCTGGKHRSVYLTQQLGEYFAQLGHQVQLRHTSLEKQ,soluble
9,MRLKKIGEWLNASPEDQDKQNADLLQTLSKLTGKQLDANALQMLQNLLQAVESKNVSGTDQLLTETEKIFSEAKTALSANDSASDINGALKSDKEQSNQENEVSEPAKELIYIQMFISQLVEGNKLTDLGNGNEAHAIYQNGDQFLSALEKKGVSQQLIQDLKQQIFTKAESSSKLYSMTASELKSFQSLMDQMSMLPQKGTKEWSLAETQLKAFLLSKSSESSQDFGKSVLTPLSQSSSSKNASDVSGSIQPVDSKSGLQMLFSGYRGIGGVQTLDLQQMSSDIPNAETKTVADQVINAWKQMKYTPFGRSTGSFTIRLNPEHLGFVTIKLTNENGMFQSKIIASSQSAKELLEQHLPQLKQSLPNMAVQIDRFTLPVQSGDQPIYGQLADEQKQQQEGQRQQRQKKQSNDFGDLLDEVSMVEMEEEE,soluble
10,MRLLHTMLRVGDLQRSIDFYTKVLGMKLLRTSENPEYKYSLAFVGYGPETEEAVIELTYNWGVDKYELGTAYGHIALSVDNAAEACEKIRQNGGNVTREAGPVKGGTTVIAFVEDPDGYKIELIEEKDAGRGLGN,soluble
11,MRLLLAAPHSGAGKTTVSLALLLALRARGLRVQPFKVGPDYIDPTHLEKAAARRPYNLDGFFLDETGLLALFRHGARGADFALIEGVMGLFDGKDPRGEVGSTAQVARLLKAPVALVVDAKGMAGSIAPLALGFRDFHPGVRVVGVFANRVGSERHAEILKEALKAVGLPLLGWLPQDPALELPERHLGLVLAGEVAPPLEALRRAFRVDLEGVLRLAASAPPLPEARPFLPPRRPPRARVAYAWDKAFSFYYPEALELLEALGAELVPFSPLEDEALPKAHALLLGGGYPELFAERLSANVALREAIRRFPGPIVAECGGYMYLSQGLWVGERFFPMVGLVPGEARMAERPVLGYREVEALRDSPVARKGQAFKGHEFHYARLPASPSPAWRRLGGEEVEGYTDGRVLASFVHLYLPARPEGVERLLGLASRGKAAGASLEHHHHHH,not soluble
12,MRLRSMTKVLVLGARFGGLSAAYALKRLAGNKAEIKVINNTRFSYFRPALPHVATGVINENDVMVDLTKALPEKRINFQQGTVEKIDASGGLVYYTKPDGDKAEEDYDYLIIALGAHLGTELVKGWDKYGYSVCELDYALKLREKLKDFKGGTIAIGSGLFYQGKSPKPKVPENYVPVADAACEGPIFEMSLMLSGYFKKKGMLNKVKFVVFSPGEYLSDLSTMSRKIVREMYKQMGIELVDNFRIKEIRENEIADEAGKTIKADLTILIPPYTGNPALKNSTPDLIDDGGFVPTDLNMVSINYDNVYAVGDANSLTVPKLGYLAVKTGNIAAQHLATRLGVQVKVDQYYPTIICVADNPFEGFGIAVKDDTWYGGTTSIAAPSPINHIKKELFHKYFIWTKGDMALEKFLASWLEHHHHHH,soluble
13,MRLVLSSLIVIAGLLSSQATAATAPEQTASADIRDSGFVYCVSGQVNTFNPQKASSGLIVDTLAAQLYDRLLDVDPYTYRLVPELAESWEVLDNGATYRFHLRRDVSFQKTAWFTPTRKLNADDVVFTFQRIFDRRHPWHNINGSSFPYFDSLQFADNVKSVRKLDNNTVEFRLTQPDASFLWHLATHYASVMSAEYAAQLSRKDRQELLDRQPVGTGPFQLSEYRAGQFIRLQRHDGFWRGKPLMPQVVVDLGSGGTGRLSKLLTGECDVLAWPAASQLTILRDDPRLRLTLRPGMNIAYLAFNTDKPPLNNPAVRHALALSINNQRLMQSIYYGTAETAASILPRASWAYDNDAKITEYNPQKSREQLKALGIENLTLHLWVPTSSQAWNPSPLKTAELIQADMAQVGVKVVIVPVEGRFQEARLMDMNHDLTLSGWATDSNDPDSFFRPLLSCAAINSQTNFAHWCNPEFDSVLRKALSSQQLASRIEAYEEAQNILEKELPILPLASSLRLQAYRYDIKGLVLSPFGNASFAGVSREKHEEVKKP,not soluble
14,MRNELNSNEYNLMASRQSRKILTGTLAAMENVKIGQDENVDCGVVFYDEFKILIPIREMNVSREDKRVIRSMIGAEIDFIVMEFDDENRTAIASRKEAMELRKNLELKKHKVGEKIFVRVTSVGRNNCRVDCYGIEYRVPINEIDYGYIDKVDKYVQVGDVVPAIIKELDIDNNIVVVSIKEAKEDPYLGIVKSLNKGGEYLGVVTGIKDYGIFLTIRKGVNCLCPFPNWANFSPAVGEKFVVRIKSINYDEKKINANLMRPINQRNKYNPTWGLGLEHHHHHH,soluble
15,MRNKPFYLLCAFLWLAVSHALAADSTITIRGYVRDNGCSVAAESTNFTVDLMENAAKQFNNIGATTPVVPFRILLSPCGNAVSAVKVGFTGVADSHNANLLALENTVSAASGLGIQLLNEQQNQIPLNAPSSAISWTTLTPGKPNTLNFYARLMATQVPVTAGHINATATFTLEYQ,not soluble
16,MRNPFERMPTVLTADELIDKAFRRAEKAASSFKPRGNKVKKARLREELRVRTVSNVVRDNLRKVLERTPGLSTLPKFYQELVDVLVDRDTFHKAMAGIDWAIRIIRELEERYVERIRYSNDPNEIAELRRQFYGRVASVLRDIDDRLRYLNKAREVLKDLPVVDLEIPTVVIAGHPNVGKSTLLKALTTAKPEIASYPFTTRGINVGQFEDGYFRYQIIDTPGLLDRPISERNEIEKQAILALRYLGNLIIYIFDPSEHCGFPLEEQIHLFEEVHGEFKDLPFLVVINKIDVADEENIKRLEKFVKEKGLNPIKISALKGTGIDLVKEEIIKTLRPLAEKVAREKIERELRRYRSYL,soluble
17,MRPAGRSNNQVRPVTLTRNYTKHAEGSVLVEFGDTKVLCTASIEEGVPRFLKGQGQGWITAEYGMLPRSTHTRNAREAAKGKQGGRTMEIQRLIARALRAAVDLKALGEFTITLDCDVLQADGGTRTASITGACVALVDALQKLVENGKLKTNPMKGMVAAVSVGIVNGEAVCDLEYVEDSAAETDMNVVMTEDGRIIEVQGTAEGEPFTHEELLILLALARGESNPL,soluble
18,MRPCIVIPIYNHKDVIGLTVARLVTHGLPIFIVDDGSDAPTQAVLAALAGQHAGCVTLLRLPVNGGKGAAVMAGLRAARSDGFTHALQIDADGQHDAADVPTFMDAARDHPEAVILGQPVYDATVPKARLYGRYLTHAWVWIETLSFDIRDSMCGFRVYPLALACALIDEVALPTRMDFDIEILVRLHWRRTRFVAIPTRVTYAADGVSHFDVLWDNIRISQSHARLVAGMLVRLPLLLANKARPRQRADQAAAGKAHWWRIAERGSQLGMRLLALSCRLLGTRITALWLYPIVAYFLLTGRAARQASRQYFERLAAASAQDRTPAPGWRSAYRHMIAFAQSGLDKLAAWSGHVSPHRVRFDDPAPFEALMASGRGALVIGAHLGNLEMTRALATRHGQVKVTAVVYIEHARRFNRVLAGAHPEFATHLLEVSDFGPATAMRMQERIDAGELLVIVGDRVPATEMGRTVEATFLGAPARFAQGPYILAHALGCPVYLFFCLKTRQDYTLYFEPFAERIELPRHARATHLATLAQRYASRLEHHCRKAPFQWFNFFDFWARPKKDAHGLEHHHHHH,not soluble
